Laboratory results taken from the nanobody polyreactivity screen of Harvey et al. (2022).

assay: yeast display, Sf9 membrane polyspecificity reagent, FACS + sequencing; frameworks hold sequencing errors
Method in brief: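 After 36–48 hours of galactose induction, yeast (Saccharomyces cerevisiae BJ5465) displaying a synthetic nanobody library were stained at 4 °C for 1 hour with 10% biotinylated, detergent-solubilized Sf9 membrane reagent. Streptavidin microbeads enriched the stained cells before FACS sorting into low and high (top ~1%) gates on anti-HA and streptavidin fluorescence. Each clone's polyreactivity label reflects its gate of origin.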

Sequence | polyreactivity (PSR sort gate)
QVQLVESGGGLVQAGGSHRLSCAASGSTFLINAMGWYRQAPGKERELVAAISRDGSTNYADSVKGRFTISRDNAKNTVYLQMNSLKPDDTAVYYCAADEQAYYVRRFDYWGEGTQVTVSS | low polyreactivity
QVQLVESGGGLVQAGGSLRLSCAASGFTFGSYAMGWYRQAPGKERELVAAISWGGGSTYYADSVKGRFTISRDNAKNTVYLQMNSLKPEDTAVYYCNADAISSFGYWGQGTQVTVSS | high polyreactivity
QVQLVESGGGLVKAGGSLRLSCAASGSISAGNAMGWNIHAPGKERELVAAISGSGGSTFYADSVKGRFTISRYNAKNSVYLQINSLKPEDTAVYYCAARGGYRLRYIPYVRYDYWGQGTQVTVSS | high polyreactivity
QVQLVESGGGLVQAGGSLRLSCAASGRIFSVYDMGWYRQAPGKERELVAAIDTSDGSTNYADSVTGRFTISRDNAKNTVYLQMNSLKPEDTAVYYCNATDSYVPFDYWGQGTQVTVSS | low polyreactivity
QVQLVESGGGLVQAGGSLRLSCAASGSILPGNAMGWSRQAPGKERELVAAITYSGGSTYADSVKGRFTISRDNAKNTVYLQINSLKPEDTAVYYCNADFIDPSVYDYNYWGQGTQVTVSS | low polyreactivity
QVQLVESGGGLVQAGGSLRLSCAASGRTIASYTMGWYRQAPGKERELVAAISKSGGSTYYADSVKGRFTISRDNAKNTVYLQMNSLKPEDTAVYYCAAGVPFWFWFEMDYWGQGTQVTVSS | high polyreactivity
QVQLVESGGGLVQAGGSLRLSCAASGSTFDFNAMGWYRQAPGKERELVAAITYSGGSTYYADSVKGRFTISRDNAKNTVYLQMNSLKPVDTAVYYCAAEDVYPGSIDMDYWGQGTQVTVSS | low polyreactivity
LVQLQESRGGLVLAGGGLRLSCPESVNIFTYVIMGWYRQQPGKERELVAAITYGTFTNYADSVKGPFTISRDNAKNTVYLHMNCLKPEDTAVYHCAVQSPLIEPRLYYWGQGTQVTVSS | high polyreactivity
QVQLVESGGGLVQAGGSLRLTCAASGFISSENAMGWYRQAPGKERELVAAISSGGCTNYADSVKGRFTISRDNAKNTVYLQMNSLKEEDTAVYYCAATLPGWYNEDDSWGQGTHVTVSS | low polyreactivity
QVQLVESGGGLVQAGGSLRLSCAASGSTFGAYTMGWYRQAPGKERELVAAISSDGSTYYADSVKGRFTISRDNAKNTVYLQMNSLKPEDTAVYYCNARYHFYGRADYSYYYLFDYWGQGTQVTVSS | low polyreactivity
QVQLVESGGGLVQAGGSLRLSCAASGRTFRRYAMGWYRQAPGKEREFVAAIRYSGGITYYADSVKGRFTISRDNAKNTVYLQMNSLKPEDTAVFYCAAYGWGNRWYSRFDYWGQGTQVTVSS | high polyreactivity
QVQLVESGGGLVQAGGSLRLSCAASGLTFQVYAMGWYRQAPGKERELVAGITRAGSTYYADSVKGRFTISRDNAKNTVYLQMNSLKPEDTAVYYCAARQPPPYYYWGQGTQVNVSS | high polyreactivity
QVQLVESGGGLVQAGGSLRLSCAASGSTFRWNAMGWYRQAPGKERELVAAISNGGSTNYADSVKGRFTISRDNAKNTVYLQMNSLIPEDTAVYYCATDGWYGQHYYDYDFDYYYWGQGTQVTVSS | low polyreactivity
QVQLVESGGGLVQAGGSLRLSCAASGRIFSRNTMGWYRQAPGKERELVATITSAGSTTYADSVKGRFTISRDNAKNTVYLQMNRLKPEDTAVYYCAARSWKRRVGRDYWGQGTQVTVSS | high polyreactivity
QVQLVESGGGLVQAGGSLRLSCAASGSIFGPNSMGWYRQAPGKERELVAAISWTGGRTYYADSVKGRFTISRDNAKNTVYLQMNSLKPEDTAVYYCAVKGHPWGQGTQVTVSS | low polyreactivity
QVQLVESGGGLVQAGGSLRLSCAASGFTFKYYVMGWYRQAPGKERELVASISKRGGSRNYADSVKGRFTISRDNAKNTVYLQMNSLKPEDTAVYYCAADYPATSGPRHYYWGQGTQVTVSS | high polyreactivity
QVQLVESGGGLVQAGRSLRLTCAASGRTFRAYTMGWYRQAPGKERDLVAAITSSGGGTYYADSVKGRFTISRDNAKNTVYLQMNSLKPEDTAVYYCNDRKQSYPDKYRRDYWGQGTQVTVSS | low polyreactivity
QVQLVESGGGLVEAGGSLRLSCAASGRIFRKYTMGWYRQAPGKERELVAAISRNGGDTYYADSVKGRFTISRDNAKNTVYLLMNSLKPEDTAVYYCNARTPTDSTHFDYWGQGTQVSVSS | low polyreactivity
QVQLVESGGGLVQAGGSLRLSCAASGSTLNRNAMGWYRQAPGKERDLVAAIRVSGGSTYYADSVKGRFTISRDNAKNTVYLQMNSLKPEDTAVYYCATRYVRARWYGYWGQGTQVTVSS | high polyreactivity
QVQLVESGGRLVQAGGSLRLSCAASGLIFRRNAMGWYRQAPGKERELVSAISRSSGSTYYADSVKGRFTISRDYAKNSVYFHMNSLKPDDTAVYYCDAGYRAGPGYGMYSWGQGTQVTVSS | high polyreactivity
QVQLVESGGGLVQAGGTLRLSCAASGIIFDRNVMGWYRQAPGKERELVAAITRNGGNTYYADSVKGRFTISRDNAKNTVYLQLNSLKPEDTAVYYCNAKYWPFSRWYYFWGQRTQVTVSS | high polyreactivity

Sequence | polyreactivity (PSR sort gate)
QVQLVESGGGLVQAGGSLRLSCAASGRTFFYYAMGWYRQATGKERELVAAITSSGGSTNYADSVKGRFTISRDNAKNTVYLQMNSLKPEDTAVYYCNRDRRLNRVPYFDYWGQGTQVTVSS | high polyreactivity
QVQLVESGGGLVQAGGSLRLSCAASGNTFNNNAMGWYRQAPGKERELVAAISGSGGSTYYADSVKGRFTISRDNAKNTVYLQMNSLKPEDTAVYYCAVRLVHGGKRYGYWGQGTQVTVSS | high polyreactivity
QDQLVDSGGGLVQAGGSLRLSCAASGYTFWDYAMGWYRQAPGKEREFVAGISFSDGGTYYADSVKGRFTISRDNAKNTVYLQMNSLKPEDTAVYYCAATYPYSWVYSGYYYWGQGTQVTVSS | low polyreactivity
QVQLVESGGGLVQAGGSLRLSCAASGRIFSYYGMGWYRQAPGKERELVAAITWRGSTTNYADSVKGRFTISRDNAKNTVYLQMNSLKPEDTAVYYCAPLHSAGYAYDYWGQGTQVTVSS | high polyreactivity
QVQLVESGGGLVQAGGSLRLSCAASGFIFWYYTMGGYRQAPGKERELVAAISRSGASTYYADSVKGRFTISRDNAKNTVYLQMNSLKPEDTAVYYCAKDYQTYSGSSDFDYWGQGTQVTVSS | high polyreactivity
QVQLVESGGGLVQAGGSLRLSCAASGFISVSNAMGWYRQAPGKERELVAAIRGSGGSTYYADSVKGRFTISRDNAKNTVYLQMNSLKPEDTAVYYCAATAYPRGSPPYNYWGQGTQVTVSS | high polyreactivity
QVQLVESGGGLVQAGGSLRLSCAASGSIIRINAMGWYRQAPGKERELVAAISTRSGRTYYADSVKGRFTISRDNAKNTVYLQLNSLKPEDTAFYYCARYRTQASGYGGYHYWGQGTQVTVSS | high polyreactivity
QVQLVESGGGLVQAGGSLRLSCAASGSTFLDYAMGWYRQAPGKERELVAGINSGGSTNYADSVKGRFTISRDNAKNTVYLQMNSLKPEDTAVYYCAADRVGNEYDYWGQGTQVTVSS | low polyreactivity
QVQLVESGGGLVQAGGSLRLSCAASGNTLHRYVMGWYRPAPGKERELVAVITRGTSTYYADSVKGRFTISRDNAKNTVYLQMNSLKPEDTAVYYCAARYTFPYSRYDYWGQGTQVTVSS | low polyreactivity
QVQLVESGGGLVQAGGSLRLSCAASGSIFGYYAMGWYRQAPGKERELVAAISRRGGRTYYADSVKGRFTISRDNAKNTVYLQMNSLKPEDTAVYYCAAAVSVSASPYTGFDYWGQGTQVTVSS | high polyreactivity
QVQLLESGGGLVQAGCSLRLSCAASGFTFKSNAMGWYRQAPGKESELVARINRSGGSTYYADSVKGRFTISRYNAKNTVYLQMNSLKPEDTAVYYCARGRYTLYESKYDYWGQGTQVTVSS | high polyreactivity
QVQLVESGGGLVQAGGSLRLSCAASGSTLYSNAMGWYRQAPGKERELVATIDWSGGRTYYADSVKGRFTISRDNAKNTVYLQMNSLKPEDTAVYYCAARQSRDFRYRGFYYWGQGTQVTVSS | high polyreactivity
QVQLVESGGGLVQAGGSLRLSCAASGSTYWINAMGWYRQAPGKEREFVAAIRWNGGSTNYADSVKGRFTISRDNAKNTVYLQMNSLKPEDTAVYYCAADGYIGWRHIYEYWGQGTQVTVSS | low polyreactivity
QVQLVESGGGLVQAGGSLRLSCAASGFTFPVYAMGWYRQAPGKERELVAAISSGGRTDYADSVKGRFTISRDNAKNTVYLQMNSLKPEDTAVYYCNKARSDHDGRNDSWGQGTQVTVSS | high polyreactivity
QVQLVESGGGLVQAGGSLRLSCAASGFTFGDNAMGWYRQAPWKERELVADIDSDGSTYYADSVKGRFTISRDNAKNTFYLEMNSLKPEDNAVYYCAKDQYYSLGPYSFGFDYWGQGTQVNVSS | low polyreactivity
QVQLVESGGRLVQAGGSLRLSCAASGSIFLAYDMGWYRQAPGKERELVAGITSVGTTYYADSVKGRFTISRDNAKNTVYFQMNSLKPEDTAVYYCAAQLYIRNHFRYASTAAYDMGYWGQGTQVTVSS | low polyreactivity
QVQLVESGGGLVQAGGSLRLICAASGSTFPTYAMGWYRQAPGKERELVAAISTRGGSTYYADSVKGRFTISRDNAKNTVYLQMNSVKPEDTAVYYCATGKTVGRYHYEYWGQGTQVTVSS | low polyreactivity
QVQLVESGGGLVQAGGSLRLSCAASGSTITDYTMGWYRQAPGKERELVAVISQSGGSTYYADSVKGRFTISRDNAKNTVYLQMNSLKPEDTAVYYCAARTYWRGYRGQKYDYWGQGTQVTVSS | high polyreactivity
QVQLVESGGGLVQAGGSLLLSCAASGIIFGTNALGWYRQAPGKERELVAAITWSGGNTTYADSVKGRFTISRDNAKNTVYLQMNSLKPEDTAVYYCAADFTRAGDYDYWGQGTQVTVSS | low polyreactivity
QVQLQESGGGLVQAGGSLRLSCAASGTISPLPAMAWYRQAPGKEREFVAGIDTGAITNYADSVKGRFTISRANAKNTVYLQMNSLIPEDTAVYYCAVFPAAYDYYERYYTYWGQGTQVTVSS | low polyreactivity
